Test results as given in patent US20220143214A1.
Values joined by “and” are separate entries in the source; they are usually repeats but may differ in a detail not shown here. Identical values can stand only once.

Columns and labels:
[1] = target: LY6A (Ly6a, C57BL/6J mouse) (mouse (C57BL/6J)) (UniProt P05533); test: AAV library bound to Ly6a-transfected HEK293T cells, NGS
[2] = target: LY6C1 (Ly6c1, C57BL/6J mouse, splice variant 1) (mouse (C57BL/6J)) (UniProt P0CW02); test: AAV library bound to Ly6c1-transfected HEK293T cells, NGS
Sequence of UniProt P0CW02 (P0CW02 27-109 limits assumed, change not shown): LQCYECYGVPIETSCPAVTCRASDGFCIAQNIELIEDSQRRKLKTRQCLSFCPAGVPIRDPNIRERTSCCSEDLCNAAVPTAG

Sequence of UniProt P05533 (P05533 27-112 limits assumed): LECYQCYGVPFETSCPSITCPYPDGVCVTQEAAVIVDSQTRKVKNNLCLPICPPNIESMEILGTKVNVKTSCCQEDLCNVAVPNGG

| Substance | fold enrichment (log2) [1] [log2] | fold enrichment (log2) [2] |
| --- | --- | --- |
| AAV9 K449R 7-mer variant AADRPFL | 2.73 | -3.32 log2 |
| AAV9 K449R 7-mer variant AGSFKDI | 3.96 | -2.87 log2 |
| AAV9 K449R 7-mer variant AISAPFK | 2.56 | -0.06 log2 |
| AAV9 K449R 7-mer variant AKAGYAS | -0.03 | 4.54 log2 |
| AAV9 K449R 7-mer variant ALAKPFI | 1.91 | -0.19 log2 |
| AAV9 K449R 7-mer variant ALHVPFK | 4.11 | 0.26 log2 |
| AAV9 K449R 7-mer variant ASSKPFL | 3.9 | 1.19 log2 |
| AAV9 K449R 7-mer variant DKAWGST | 0.19 | 3.56 log2 |
| AAV9 K449R 7-mer variant DKQKPFL | 4.6 | 0.94 log2 |
| AAV9 K449R 7-mer variant DKYNFSS | -0.13 | 3.43 log2 |
| AAV9 K449R 7-mer variant DMERPFK | 4.51 | -3.91 log2 |
| AAV9 K449R 7-mer variant DRIHGYS | -0.11 | 4.34 log2 |
| AAV9 K449R 7-mer variant DRKGYSA | -0.39 | 2.77 log2 |
| AAV9 K449R 7-mer variant DSQRPFI | 2.63 | -3.55 log2 |
| AAV9 K449R 7-mer variant DTKWSSS | 0.53 | 4.11 log2 |
| AAV9 K449R 7-mer variant DVKYGSS | -0.36 | 4.92 log2 |
| AAV9 K449R 7-mer variant EDHRYSS | 0.17 | 3.4 log2 |
| AAV9 K449R 7-mer variant EIRGYSS | 0.75 | 4.92 log2 |
| AAV9 K449R 7-mer variant EKKQYSS | 0.89 | 4.45 log2 |
| AAV9 K449R 7-mer variant ESRGFSS | -0.58 | 4.7 log2 |
| AAV9 K449R 7-mer variant ESSKPFR | 3.15 | 1.28 log2 |
| AAV9 K449R 7-mer variant ESTRPFK | 2.87 | 0.28 log2 |

| Substance | fold enrichment (log2) [1] [log2] | fold enrichment (log2) [2] |
| --- | --- | --- |
| AAV9 K449R 7-mer variant FLPGYSS | -2.29 | 2.54 log2 |
| AAV9 K449R 7-mer variant FRIGGSS | 1.34 | 4.89 log2 |
| AAV9 K449R 7-mer variant GDNRPFK | 2.65 | 0.57 log2 |
| AAV9 K449R 7-mer variant GESRPFI | 3.32 | -2.08 log2 |
| AAV9 K449R 7-mer variant GGRGLSS | 2 | 4.9 log2 |
| AAV9 K449R 7-mer variant GKHFSST | 2.64 | 4.25 log2 |
| AAV9 K449R 7-mer variant GKTGYST | -3.32 | 2.93 log2 |
| AAV9 K449R 7-mer variant GKTHGYS | 1.65 | 3.87 log2 |
| AAV9 K449R 7-mer variant GNENFSS | -1.43 | 3.45 log2 |
| AAV9 K449R 7-mer variant GSERPFL | 3.78 | -4.2 log2 |
| AAV9 K449R 7-mer variant GSYGYSS | -3.32 | 2.48 log2 |
| AAV9 K449R 7-mer variant GVDRPFK | 3.84 | -1.13 log2 |
| AAV9 K449R 7-mer variant HEHRYST | -4.06 | 3.06 log2 |
| AAV9 K449R 7-mer variant HKTHYSS | 0.86 | 3.24 log2 |
| AAV9 K449R 7-mer variant HNVFKNP | 2.09 | 0.33 log2 |
| AAV9 K449R 7-mer variant HTQGYST | -3.32 | 2.26 log2 |
| AAV9 K449R 7-mer variant IATGYSQ | -3.74 | 2.18 log2 |
| AAV9 K449R 7-mer variant IDRGYSV | -1.04 | 5.3 log2 |
| AAV9 K449R 7-mer variant IRQGYSS | -1.28 | 2.61 log2 |
| AAV9 K449R 7-mer variant IRVGYST | -3.55 | 3.46 log2 |
| AAV9 K449R 7-mer variant IVRGLSS | -1.14 | 3.24 log2 |
| AAV9 K449R 7-mer variant KDKFKDI | 3.38 | -2.08 log2 |

| Substance | fold enrichment (log2) [1] [log2] | fold enrichment (log2) [2] |
| --- | --- | --- |
| AAV9 K449R 7-mer variant KQYQGST | 1.54 | 4.88 log2 |
| AAV9 K449R 7-mer variant KTQFKDV | 2.09 | -3.55 log2 |
| AAV9 K449R 7-mer variant LAHTYSS | 0.04 | 3.97 log2 |
| AAV9 K449R 7-mer variant LKKGYST | 1.72 | 2.96 log2 |
| AAV9 K449R 7-mer variant LKTGMSS | -0.66 | 2.74 log2 |
| AAV9 K449R 7-mer variant LKYGTST | 1.24 | 4.88 log2 |
| AAV9 K449R 7-mer variant LLRGASS | -0.33 | 2.96 log2 |
| AAV9 K449R 7-mer variant LNRGSST | 1.72 | 4.15 log2 |
| AAV9 K449R 7-mer variant LRGGYST | -3.32 | 2.88 log2 |
| AAV9 K449R 7-mer variant LRMGASS | 0.91 | 4.17 log2 |
| AAV9 K449R 7-mer variant LRTAYSS | 1.13 | 5.12 log2 |
| AAV9 K449R 7-mer variant LSKGLSS | -3.55 | 3.55 log2 |
| AAV9 K449R 7-mer variant LSMGYST | -3.91 | 2.97 log2 |
| AAV9 K449R 7-mer variant LTKWEST | 0.82 | 3.91 log2 |
| AAV9 K449R 7-mer variant LWAKGST | 1.42 | 3.9 log2 |
| AAV9 K449R 7-mer variant LYAGRSS | 1.03 | 4.13 log2 |
| AAV9 K449R 7-mer variant MERYGSS | -2.28 | 3.83 log2 |
| AAV9 K449R 7-mer variant MMAKPFL | 4.53 | -0.49 log2 |
| AAV9 K449R 7-mer variant MNIGYSA | -1.48 | 2.4 log2 |
| AAV9 K449R 7-mer variant MRTFGSA | 1 | 3.97 log2 |
| AAV9 K449R 7-mer variant MRTLMSS | -0.52 | 3.85 log2 |
| AAV9 K449R 7-mer variant NYTGYSS |  | 4.83 log2 and 4.44 log2 |
